Source: patent US7947285B2, “Methods for preventing post endoscopic retrograde cholangiopancreatography pancreatitis” (priority 2003, dated 2011)
Where no end group is shown, it is not given here.

Experiments:
Assay type in all cases: in vivo, human
patients undergoing ERCP [1] = test: Pain, nausea and vomiting scores pre and post ERCP (0-10 scale)
Experimental: (§1) Incidence of post-ERCP pancreatitis (sPS vs. placebo) was evaluated as the primary efficacy variable in this study. Secondary efficacy variables included incidences of post-ERCP pancreatitis in the following sub-populations: (1) cannulation of CBD; (2) sphincterotomy of CBD; (3) cannulation of pancreatic duct; (4) sphincterotomy of pancreatic duct; (5) stent insertion and removal into CBD; (6) stent insertion and removal into pancreatic duct; (7) stone extraction (basket) from CBD; (8) stone extraction (balloon) from CBD; (9) manometry of CBD; (10) manometry of pancreatic duct; (11) pain scores pre and post ERCP (0-10 scale); (12) nausea scores pre and post ERCP (0-10 scale); (13) vomiting scores pre and post ERCP (0-10 scale); (14) return to baseline activity (pre-ERCP); and (15) return to work.
(§2) Primary and secondary efficacy variables were compared between the treatment groups using the Fisher Exact Test or Cochran-Mantel Haenszel Association Test. Adverse events and vital signs (heart rate, blood pressure) were compared between the treatment groups using the t-test. The clinical assumption on which the power calculation is based was on incidence of post-ERCP pancreatitis among all patients without pancreas divisum of 6%. In order to show a 50% reduction in the rate of post-ERCP pancreatitis with a significance of p=0.05, at a power of 80%, 749 evaluable patients per treatment group (sPS vs. placebo) were needed.
Additional secondary efficacy analyses were performed on post-ERCP pain, nausea, and vomiting using a 0 to 10 digital scale. There were no significant differences between the treatment groups for baseline (pre procedure) pain, nausea and vomiting. There were also no significant differences in these variables post-ERCP although there was a slight numerical trend indicating less nausea for sPS ([…]).

patients undergoing ERCP [2] = test: Return to baseline (pre-ERCP) activity and return to work
Experimental: as §1
Additional secondary efficacy variables assessed were return to baseline (pre-ERCP levels of activity) and the time in days to return of pre-ERCP activity levels. There was a small difference in the percentage of patients reporting return to baseline activity within the follow-up period (2 to 4 days post-ERCP) favoring the placebo group (p=0.0230) (49.78% vs. 42.09%). Interims of the mean number of days required to achieve pre-ERCP activity levels, was 0.6 (±1.0) for the sPS group and 0.7 (±0.9) for the placebo group. An attempt was made to obtain information on return to work. Relatively few data points were able to be collected, however, because a large percentage of patients were not working pre-ERCP (retired, too ill, etc.) among the 185 patients (95 in the sPS group and 90 in the placebo group) providing relevant responses for this variable, 46.32% of sPS patients and 50.00% of placebo patients reported returning to work within the follow-up period.

patients undergoing ERCP [3] = test: Adverse events
Experimental: (§3) This study evaluated the following safety variables: (1) Adverse events; (2) Vital signs; (3) Serum Amylase (when clinically indicated); and (4) Serum Lipase (when clinically indicated). No drug concentration measurements were assessed in this study.
as §2

patients undergoing ERCP [4] = test: Vital signs (systolic and diastolic BP, pulse) pre and post ERCP
Experimental: as §3, §2
Systolic and Diastolic blood pressure and pulse were measured for all patients' pre and post-ERCP procedure.

synthetic porcine secretin (HSDGTFTSELSRLRDSARLQRLLQGLV-NH2; ends and bridges not checked; UniProt P63298 33-59, looked up) [SPS, synthetic form of porcine secretin, a 27 amino acid gastrointestinal peptide hormone]
Nausea post-ERCP, Mean (SD) (patients undergoing ERCP [1]; N = 485): 0.9 (2.1) (N = 485) | Pain Post-ERCP, Mean (SD) (patients undergoing ERCP [1]; N = 485): 1.8 (3.0) (N = 485) | Vomiting post-ERCP, Mean (SD) (patients undergoing ERCP [1]; N = 485): 0.6 (1.9) (N = 485) | Vomiting pre-ERCP, Mean (SD) (patients undergoing ERCP [1]; baseline, N = 482): 0.1 (0.8) (N = 482) | Nausea Pre-ERCP, Mean (SD) (patients undergoing ERCP [1]; baseline, N = 483): 0.6 (1.7) (N = 483) | Pain Pre-ERCP, Mean (SD) (patients undergoing ERCP [1]; baseline, N = 483): 1.4 (0.6) (N = 483) | Change in Vomiting, Mean (SD) (patients undergoing ERCP [1]; pre to post ERCP, N = 479, p 0.0776): 0.5 (2.0) (N = 479) | Change in Nausea, Mean (SD) (patients undergoing ERCP [1]; pre to post ERCP, N = 480, p 0.0284): 0.3 (2.5) (N = 480) | Change in Pain, Mean (SD) (patients undergoing ERCP [1]; pre to post ERCP, N = 480, p 0.0668): 0.4 (3.4) (N = 480) | mean number of days required to achieve pre-ERCP activity levels (patients undergoing ERCP [2]; in vivo): 0.6 (±1.0) days | percentage of patients reporting return to baseline activity (patients undergoing ERCP [2]; within the follow-up period (2 to 4 days post-ERCP), p=0.0230 favoring placebo): 42.09% | patients reported returning to work (patients undergoing ERCP [2]; within the follow-up period, 95 patients in the sPS group, not significant): 46.32% | Patients with AE related to study drug (%) (patients undergoing ERCP [3]; N = 488): 0.2% | Patients with AE related to study drug: number (patients undergoing ERCP [3]; N = 488): 1 | Patients with serious AE (%) (patients undergoing ERCP [3]; N = 488): 0 (0) % | Patients with serious AE: number (patients undergoing ERCP [3]; N = 488): 0 (0) | Patients with severe AE (%) (patients undergoing ERCP [3]; N = 488): 0.2% | Patients with severe AE: number (patients undergoing ERCP [3]; N = 488): 1 | Patients with unknown severity to AE (%) (patients undergoing ERCP [3]; N = 488): 0.2% | Patients with unknown severity to AE: number (patients undergoing ERCP [3]; N = 488): 1 | Total No. of AEs related to study drug (patients undergoing ERCP [3]; N = 488): 1 | Total No. of AEs related to study drug (%) (patients undergoing ERCP [3]; N = 488): 0.2% | Total No. of serious Aes (patients undergoing ERCP [3]; N = 488): 0 (0) | Total No. of serious Aes (%) (patients undergoing ERCP [3]; N = 488): 0 (0) % | Total No. of severe Aes (patients undergoing ERCP [3]; N = 488): 2 | Total No. of severe Aes (%) (patients undergoing ERCP [3]; N = 488): 0.4% | Total No. of unknown severity to AE (patients undergoing ERCP [3]; N = 488): 1 | Total No. of unknown severity to AE (%) (patients undergoing ERCP [3]; N = 488): 0.2% | Total No. of Aes (patients undergoing ERCP [3]; N = 488, p 0.0006): 25 | Total No. of Aes (%) (patients undergoing ERCP [3]; N = 488, p 0.0006): 5.1% | Total No. of mild/moderate Aes (patients undergoing ERCP [3]; N = 488, p 0.0039): 21 | Total No. of mild/moderate Aes (%) (patients undergoing ERCP [3]; N = 488, p 0.0039): 4.3% | Patients with any AE (%) (patients undergoing ERCP [3]; N = 488, p 0.0052): 4.1% | Patients with any AE: number (patients undergoing ERCP [3]; N = 488, p 0.0052): 20 | Patients with mild/moderate AE (%) (patients undergoing ERCP [3]; N = 488, p 0.0208): 3.5% | Patients with mild/moderate AE: number (patients undergoing ERCP [3]; N = 488, p 0.0208): 17 | AE judged by the investigator to be related to study drug (patients undergoing ERCP [3]; patient #16, mild AE of an hour duration): drop in blood pressure | overall safety and tolerability (patients undergoing ERCP [3]; patients undergoing ERCP, 16 mcg IV): safe and well tolerated | Diastolic BP post-ERCP, Mean (SD) (patients undergoing ERCP [4]; N = 381): 68.7 (13.4) (N = 381) mm/Hg | Pulse post-ERCP, Mean (SD) (patients undergoing ERCP [4]; N = 381): 91.0 (20.4) (N = 381) | Systolic BP post-ERCP, Mean (SD) (patients undergoing ERCP [4]; N = 381): 131.0 (23.9) (N = 381) mm/Hg | Diastolic BP pre-ERCP, Mean (SD) (patients undergoing ERCP [4]; baseline, N = 397): 74.6 (12.8) (N = 397) mm/Hg | Pulse pre-ERCP, Mean (SD) (patients undergoing ERCP [4]; baseline, N = 397): 81.0 (15.7) (N = 397) | Systolic BP pre-ERCP, Mean (SD) (patients undergoing ERCP [4]; baseline, N = 397): 142.3 (24.9) (N = 397) mm/Hg | Change in Systolic BP, Mean (SD) (patients undergoing ERCP [4]; pre to post ERCP, N = 378, p 0.0007): −11.4 (29.2) (N = 378) mm/Hg | Change in Diastolic BP, Mean (SD) (patients undergoing ERCP [4]; pre to post ERCP, N = 378, p 0.1163): −6.0 (15.3) (N = 378) mm/Hg | Change in Pulse, Mean (SD) (patients undergoing ERCP [4]; pre to post ERCP, N = 378, p 0.1324): 9.7 (17.7) (N = 378)
